Reference: PMC6800368, “Rotational symmetry of the structured Chip/LDB-SSDP core module of the Wnt enhanceosome” (Proceedings of the National Academy of Sciences of the …, 2019)
Several values for one entry are separate records, joined by “and”; a condition that tells them apart may be missing. Equal values may be shown once. Values belong to the molecule of their own block, whether it stands above or below them.

Legend:
[1] = target: Lip-SSDP_(1–92) Mα3 (F66E L69A Y70A) (Drosophila) (UniProt Q9VEB9); assay: SEC-MALS; MBP-LCCD_(Chip) (WT or Mα6) coexpressed with Lip-SSDP_(1–92) (WT, V65K, Mα3 or ML), purified; Superdex-200 10/300, 2 mg/mL, PBS, 1 mM DTT; PAGE of SEC fractions
[2] = target: the molecule itself; assay: SEC-MALS; Lip-SSDP_(1–92) WT and mutants alone; Superdex-200 10/300, loaded at 2 mg/mL, PBS, 1 mM DTT; self-association of SSDP dimers into tetramers
MBP-LCCD_(Chip) = target: T1, MBP-LCCD_(Chip) (Drosophila, UniProt Q7KVG9-2 384-436); assay: SEC-MALS; MBP-LCCD_(Chip) (WT or Mα6) coexpressed with Lip-SSDP_(1–92) (WT, V65K, Mα3 or ML), purified; Superdex-200 10/300, 2 mg/mL, PBS, 1 mM DTT; PAGE of SEC fractions; conditions: both partners purified
T1 construct: Drosophila Chip, LCCD, residues 384-436; also called Chip-LCCD (residues 384 to 436); source: E. coli BL21(DE3)-RIL, bicistronic coexpression with Lip-SSDP_(1–92), purified (Ni-NTA, gel filtration)
T1 sequence (looked up): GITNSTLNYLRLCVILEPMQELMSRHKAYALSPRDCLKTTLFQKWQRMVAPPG

[3] = target: the molecule itself; assay: as above
[4] = target: the molecule itself; assay: crystal structure; SSDP_(1–86), tags removed; vapor diffusion at 19 °C; 2.4 Å
[5] = target: the molecule itself; assay: crystal structure; DD (XLdb1 20-200) bound to a DARPin; 2.0 to 2.59 Å depending on the DARPin

- stoichiometry N [1]: 2
Molecule: Lip-SSDP_(1–92) Mα3 (F66E L69A Y70A) (from UniProt Q9VEB9 1-92) (domain or fragment)

B1: Lip-SSDP_(1–92) (domain or fragment, Drosophila, UniProt Q9VEB9 1-92, looked up)
chain: MYGKSKTSAVPSDAQAREKLALYVYEYLLHVGAQKAAQTFLSEIRWEKNITLGEPPGFLHTWWCVFWDLYCAAPERRDQCDHSSEAKAFHDY
notes: Drosophila SSDP, residues 1-92; Obligate dimer; dimers and tetramers are seen by SEC-MALS; also called SSDP-N; WT Lip-SSDP_(1–92); source: E. coli BL21(DE3)-RIL, purified (Ni-NTA, gel filtration); alone or coexpressed with MBP-LCCD from a bicistronic vector
- stoichiometry N [2]: 2 and 4
- stoichiometry N (MBP-LCCD_(Chip)): ~2 SSDP chains per LCCD (4:2, from the printed formula) and ~2 SSDP chains per LCCD

B2: Lip-SSDP_(1–92) V65K (domain or fragment, Drosophila, UniProt Q9VEB9 1-92, looked up)
chain: MYGKSKTSAVPSDAQAREKLALYVYEYLLHVGAQKAAQTFLSEIRWEKNITLGEPPGFLHTWWCKFWDLYCAAPERRDQCDHSSEAKAFHDY
notes: Drosophila SSDP, residues 1-92; also called SSDP V65K; source: E. coli BL21(DE3)-RIL, purified (Ni-NTA, gel filtration); alone or coexpressed with MBP-LCCD
- stoichiometry N [3]: 4

- stoichiometry N (MBP-LCCD_(Chip)): 2 SSDP chains per LCCD
B3: Lip-SSDP_(1–92) ML (I50E L52E) (domain or fragment, Drosophila, UniProt Q9VEB9 1-92, looked up)
chain: MYGKSKTSAVPSDAQAREKLALYVYEYLLHVGAQKAAQTFLSEIRWEKNETEGEPPGFLHTWWCVFWDLYCAAPERRDQCDHSSEAKAFHDY
notes: Drosophila SSDP, residues 1-92; also called SSDP ML; source: E. coli BL21(DE3)-RIL, purified (Ni-NTA, gel filtration); alone or coexpressed with MBP-LCCD
- binding result [2]: binds

B4: SSDP_(1–86) (domain or fragment, Drosophila, UniProt Q9VEB9 1-86, looked up)
chain: MYGKSKTSAVPSDAQAREKLALYVYEYLLHVGAQKAAQTFLSEIRWEKNITLGEPPGFLHTWWCVFWDLYCAAPERRDQCDHSSEA
notes: also called SSDP-N; N-terminal dimerization domain of SSDP; source: E. coli BL21(DE3)-RIL, purified (Ni-NTA, gel filtration)
- binding result [4]: binds

B5: DD (XLdb1 20-200) (domain or fragment, Xenopus laevis, UniProt P70060 20-200, looked up)
chain: GIGRHTPYGNQTDYRIFELNKRLQNWTEECDNLWWDAFTTEFFEDDAMLTITFCLEDGPKRYTIGRTLIPRYFRSIFEGGATELYYVLKHPKESFHNNFVSLDCDQCTMVTQHGKPMFTQVCVEGRLYLEFMFDDMMRIKTWHFSIRQHRELIPRSILAMHAQDPQMLDQLSKNITRCGLS
notes: Xenopus laevis Ldb1 (XLdb1), dimerization domain, residues 20-200; also called dimerization domain of XLdb1; source: E. coli BL21(DE3)-RIL, purified (Ni-NTA, gel filtration)
- binding result [5]: binds
